Experimental data as given in patent US20130315910A1 (Xencor, published 2013).
Changes are numbered by the printed parent chain.

Assays:
Experiment in all cases: SPR
[1] = molecular target: T1, human FcγRIIIa (158V), His- and GST-tagged (human, UniProt P08637 17-208)
T1 construct: also called V158 FcγRIIIa; VIIIa; not shown: 6xHis and GST tags of the pTT5 vector

[2] = molecular target: T2, human FcγRI receptor protein (R&D Systems) (human, UniProt P12314 16-288)
T2 construct: also called soluble FcγRI; solFcγRI
T2 sequence (P12314 16-288 limits assumed): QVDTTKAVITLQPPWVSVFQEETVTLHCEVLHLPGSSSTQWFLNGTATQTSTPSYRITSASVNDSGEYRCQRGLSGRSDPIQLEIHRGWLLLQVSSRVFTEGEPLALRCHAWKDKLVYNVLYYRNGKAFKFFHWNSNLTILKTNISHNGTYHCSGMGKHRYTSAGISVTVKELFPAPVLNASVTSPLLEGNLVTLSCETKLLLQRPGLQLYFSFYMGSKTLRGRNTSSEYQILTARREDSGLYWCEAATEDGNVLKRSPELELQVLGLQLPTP

[3] = molecular target: T3, human FcγRIIa (131H), His- and GST-tagged (human, UniProt P12318 34-217)
T3 construct: also called H131 FcγRIIa; HIIa; not shown: 6xHis and GST tags of the pTT5 vector
T3 sequence (looked up): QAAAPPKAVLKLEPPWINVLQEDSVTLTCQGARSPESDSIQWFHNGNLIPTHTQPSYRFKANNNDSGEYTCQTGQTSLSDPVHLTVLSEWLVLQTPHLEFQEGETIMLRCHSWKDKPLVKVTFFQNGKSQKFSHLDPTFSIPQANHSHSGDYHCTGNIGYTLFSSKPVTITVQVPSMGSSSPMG

[4] = molecular target: T4, human FcγRIIa (131R), His- and GST-tagged (human, UniProt P12318 34-217)
T4 construct: Expressed in HEK293T cells, purified by nickel chromatography; also called R131 FcγRIIa; not shown: 6xHis and GST tags of the pTT5 vector
T4 sequence (looked up): T3 sequence (looked up) with H134R

T1 sequence (P08637 17-208 F176V): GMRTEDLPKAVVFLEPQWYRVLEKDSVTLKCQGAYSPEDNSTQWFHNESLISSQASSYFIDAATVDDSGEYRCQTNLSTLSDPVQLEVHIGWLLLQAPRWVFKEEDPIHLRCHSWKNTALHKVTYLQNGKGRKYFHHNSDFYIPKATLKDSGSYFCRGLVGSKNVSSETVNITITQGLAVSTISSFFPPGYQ

B1: anti-CD19 antibody HuAM4G7 IgG1 S267E (antibody)
heavy: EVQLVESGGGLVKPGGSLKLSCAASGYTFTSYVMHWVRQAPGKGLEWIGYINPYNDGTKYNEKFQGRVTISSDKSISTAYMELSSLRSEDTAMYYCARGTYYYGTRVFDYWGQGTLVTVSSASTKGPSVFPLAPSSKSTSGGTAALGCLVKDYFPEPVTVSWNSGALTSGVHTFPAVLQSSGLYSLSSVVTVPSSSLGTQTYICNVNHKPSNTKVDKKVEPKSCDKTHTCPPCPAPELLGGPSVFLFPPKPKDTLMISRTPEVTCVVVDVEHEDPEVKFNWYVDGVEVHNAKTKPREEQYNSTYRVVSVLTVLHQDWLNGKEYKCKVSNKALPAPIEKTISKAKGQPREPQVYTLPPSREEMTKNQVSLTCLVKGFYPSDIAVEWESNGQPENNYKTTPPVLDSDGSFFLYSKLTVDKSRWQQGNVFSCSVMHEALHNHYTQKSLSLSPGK
light: DIVMTQSPATLSLSPGERATLSCRSSKSLQNVNGNTYLYWFQQKPGQSPQLLIYRMSNLNSGVPDRFSGSGSGTEFTLTISSLEPEDFAVYYCMQHLEYPITFGAGTKLEIKRTVAAPSVFIFPPSDEQLKSGTASVVCLLNNFYPREAKVQWKVDNALQSGNSQESVTEQDSKDSTYSLSSTLTLSKADYEKHKVYACEVTHQGLSSPVTKSFNRGEC
notes: Positions in EU numbering; copies: 2 + 2
Q: Which “Fold vs WT IgG1” value [1] does the source give for B1 here?
A: 0.381 fold

Q: What about the Kd [1] of the same binder?
A: 503 nM

Q: And the “Fold vs WT IgG1” value [2]?
A: 2.81 fold

Q: What about the Kd [2] of the same binder?
A: 0.117 nM

Q: What about the “Fold vs WT IgG1” value [3] of the same binder?
A: 0.753 fold

Q: What about the Kd [3] of the same binder?
A: 859 nM

Q: And the “Fold vs WT IgG1” value [4]?
A: 29.5 fold

Q: What about the Kd [4] of the same binder?
A: 29.1 nM
